± gives the uncertainty stated by the source.
assay: amyloid nucleation score (Sup35N fusion, yeast selection) (log enrichment); library NNK3; higher = more nucleation; inactive = no reads after selection
Procedure, shortened: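 Libraries of peptides of 20 random codons fused to Sup35N were expressed in psi-negative yeast and induced 24 hours with 100 μM copper sulfate. Selection was 7 days at 30°C on medium lacking adenine and uracil, and plasmid inserts were Illumina-sequenced before and after selection. Nucleation score is the DiMSum log enrichment of output over input reads, centred on the mode score of non-aggregating sequences, and sequences with under 100 input reads were left out.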

Row | Substance | amyloid nucleation score
1 | RFESHSL | inactive
2 | RFFHYYVSNVWTSNPFSTYI | -0.42 ± 0.62
3 | RFFSFFIT | 2.44 ± 0.055
4 | RFGITLVFEYPAVEFVDTTI | inactive
5 | RFHDNFAAK | inactive
6 | RFHSSLCCNMVWF | 3.06 ± 0.06
7 | RFKKVVHSFRFCAIENVLDY | inactive
8 | RFLRRIIDIVMGQSGNWMIR | inactive
9 | RFNGDQMYFNLSFKISELFP | 1.09 ± 0.079
10 | RFNGVVQEIVFCWRYRFVGN | -0.631 ± 0.96
11 | RFPDLLQMVRAKAPDPLQQH | inactive
12 | RFTRMWTDWCAGLSGSLRCS | inactive
13 | RFWFMDFFSH | 1.89 ± 0.076
14 | RFYDYYTLQVRYMTLHATNG | inactive
15 | RFYTSCVCHHLLIYYLIGSS | inactive
16 | RGFAVSF | -0.678 ± 0.89
17 | RGFNYKMLFSSDLD | inactive
18 | RGGGQDDYTRFLGSLNDVPV | inactive
19 | RGICFGYLGFM | 0.145 ± 0.3
20 | RGKCSNIETRIVRCWGGQVV | inactive
21 | RGMYMRYLGFLDHLNLRVFC | inactive
22 | RGTMLLRNISIVCQLYPLST | inactive
23 | RGTVSQFVMAVNWFTSFVKR | inactive

Row | Substance | amyloid nucleation score
24 | RHFDSMTINLYTTSLTFFAN | inactive
25 | RHNARRWCTVSC | inactive
26 | RHVLQILLSKKRDATMLPNY | inactive
27 | RHVNCLAQLSDCKLTIM | 0.396 ± 0.38
28 | RHYKLGGSGTCDVSYGSCYD | inactive
29 | RIDRFCSFFNRSPSDCLLLS | inactive
30 | RIEYVVPITPM | inactive
31 | RIFLIICKMYYFRNNRLFRM | -0.508 ± 0.8
32 | RIKCMEIFERPCYFLFCLHK | inactive
33 | RILMCMLYAAGSMARYPIWG | inactive
34 | RILTDGIIVLFL | inactive
35 | RIRGMFGCPNNR | inactive
36 | RISSIAEDSSRAGASEHPGQ | -0.57 ± 1.8
37 | RITGSRFCHCDLVNCDATVC | inactive
38 | RIVGIYKGLLAD | inactive
39 | RKFTVSISRGNWSHAWTYSE | inactive
40 | RKKTNCHINYFMDALFERLA | inactive
41 | RKTRDSCTMGSNTTWRVIFC | 0.158 ± 0.49
42 | RKVSSLVITRMAWMLSGNWL | 2.57 ± 0.051
43 | RKWMHMDASVCVTIYWDAGL | 0.38 ± 0.4
44 | RLAKSMH | inactive
45 | RLCSKRVKSTDGGSEHRMSW | inactive
46 | RLETMGLRNNVVCNSSEALQ | inactive

Row | Substance | amyloid nucleation score
47 | RLFDLVYSGLVFRKHSHTAM | inactive
48 | RLFSRDLTSFCFLFFNFRWK | inactive
49 | RLFYCVSAVRIHVCGNSKLF | inactive
50 | RLGFRCSVLSDMLYVGVLGS | inactive
51 | RLLPFIGIYNFSKKWLSKAL | -0.313 ± 0.75
52 | RLMFWRELGLFSKFKLSIQG | inactive
53 | RLNCDCPAMHVCN | 2.35 ± 0.074
54 | RLNHKVFRSLCKKFLRWHGS | inactive
55 | RLPRRSEDIKALRMDIRLYR | inactive
56 | RLQMRSATLYCEGGSGAILY | inactive
57 | RLRYIGSILLLRRKVVFLMH | inactive
58 | RLSLDRRNVRPDDMVHASGG | inactive
59 | RLSLVFRHIAFTS | inactive
60 | RLSYRVNCLRCPNFWNRHMS | 1.93 ± 0.11
61 | RLVDLAWRCYKIDKCLTCSS | -0.589 ± 0.93
62 | RLVLYMPVLLSMVVTNWALL | 0.872 ± 0.15
63 | RLVVLMCCIGYFGPADMNFA | 2.66 ± 0.08
64 | RLYNKSVTLAWRRFSGTKEL | inactive
65 | RMAYNFTKSR | inactive
66 | RMGVPTSYPDPDLSNDVER | inactive
67 | RMHMKLVGKG | inactive
68 | RMLPRLQDAR | inactive
69 | RMNCQFTGMSTFRPPLLGAR | inactive

Row | Substance | amyloid nucleation score
70 | RMRSGSA | inactive
71 | RNCVSSGCCRRFSD | inactive
72 | RNCYCWASVDI | inactive
73 | RNGIVGD | inactive
74 | RNKSVVPHVLRELCFMVWLV | inactive
75 | RNLYSIRANMWLNRQLRKYS | inactive
76 | RNNCCAKVIYKWLSTFGQTD | inactive
77 | RNNDVSEVKMLMKRELGFYN | inactive
78 | RNSKLSCNVDTKSCFVECMN | inactive
79 | RNSRSLSLPCC | inactive
80 | RNTLARKFVIRFTIFNAWSN | 1.28 ± 0.11
81 | RNTMSFNDSFTNALLLKSVG | inactive
82 | RNVIANEGLCQKR | inactive
83 | RNVVAESRKSWGHCVRVTYT | inactive
84 | RPAGLWVTMWIYPVLRSTYV | inactive
85 | RPFLCYLTAPASMNNTLNQV | inactive
86 | RPMKLRCASGWNVDTQFFDT | inactive
87 | RPNFDYTIWSMTNWILFTCD | inactive
88 | RPPHYQCMCSLVLSSRRNIQ | inactive
89 | RPSFLVGRFMTVLKSPRHDV | -0.692 ± 1.4
90 | RPSSLIYFSSPNTRHGSPTL | inactive
91 | RPVAFPIR | inactive
92 | RPVTPC | inactive

Row | Substance | amyloid nucleation score
93 | RQHLFRSWEVQMSLSLDF | -0.379 ± 0.63
94 | RQISLYFSFNRFSMYFTLNL | inactive
95 | RQTTYHGGKWLCSSVSGMYN | inactive
96 | RRDCCGE | 0.17 ± 0.75
97 | RREPQCYYWGAYCSVAASPA | inactive
98 | RRFGAFCIVPFERIVLDGWE | inactive
99 | RRHAR | inactive
100 | RRQLLVGIP | inactive
101 | RRTVYRHF | inactive
102 | RRWSLRWNHLM | inactive
103 | RSFLIRFILDLVYIRRTRNV | -0.273 ± 1.1
104 | RSICV | inactive
105 | RSKNWAVIMIGR | inactive
106 | RSLNPWLYAVSLHYEQFVGV | inactive
107 | RSPTNV | inactive
108 | RSQFV | inactive
109 | RSRDIGVFTGVQCLVRYRRY | inactive
110 | RSRNAIVLGACYC | inactive
111 | RSRSYRMGSLLVKSWILTLT | inactive
112 | RSSKSEGYGFVGVGI | inactive
113 | RSSSCLKTYLYLCGGWTSTF | 0.003 ± 0.26
114 | RSSSCVLFTAGTQNNRVFVV | inactive
115 | RSVSNVFRLCLDAWGKVRRH | inactive

Row | Substance | amyloid nucleation score
116 | RSVVLNRADMECKQELVNLN | inactive
117 | RSYFC | inactive
118 | RTAVVWV | inactive
119 | RTCSLRCFCYCHLYFYDVNT | inactive
120 | RTGPTRALRVLHLDAMDALV | inactive
121 | RTKFWMRRKRLLPSILYNEL | inactive
122 | RTKKMRNGASHRVMS | inactive
123 | RTPHELKFRCSFQKVWQGMV | inactive
124 | RTRFVCICTSSNSLLYGRSS | 0.714 ± 0.25
125 | RTSFLGVID | inactive
126 | RTTINLLMCGHVMGFNSCLF | 1.99 ± 0.084
127 | RTWTSCDVICLGICLRSLAK | inactive
128 | RTYARYSMVGRLTMTSTRCE | inactive
129 | RVAHFY | inactive
130 | RVCLL | -0.539 ± 1.4
131 | RVCSW | inactive
132 | RVDWRNGRVRRHLRHVLRIN | inactive
133 | RVEMICFQDYLEYKRE | inactive
134 | RVGISTYLVVSEE | inactive
135 | RVIATRDDCPFLGW | inactive
136 | RVIIRKCDYFG | inactive
137 | RVKSVTVMMIFDNYSCMVCN | 1.93 ± 0.069
138 | RVKVSYASYARK | 1.49 ± 0.12

Row | Substance | amyloid nucleation score
139 | RVLNAYSLEYKCISSMPWYL | 1.49 ± 0.14
140 | RVMAMYIGV | inactive
141 | RVMRHLFHFVCNKSLDYWYR | inactive
142 | RVMSWMILNKYVKIPYCRHR | inactive
143 | RVRVNPSVHRRPRYGND | inactive
144 | RVSLLNKGVGLRNIRFHEFL | inactive
145 | RVSRADRGRCSSFYNLRVLS | inactive
146 | RVSSFMSLTVGRYGKLHRDS | inactive
147 | RVTFWPFVVSAFRVMYGICK | inactive
148 | RVVCGNTGNVAIKKGLINMC | inactive
149 | RVWHLYTMV | -1.11 ± 1.9
150 | RVWMIGGYSDLFHWNSVLVS | inactive
151 | RWNDKWGVDVRSLIIIFVGS | inactive
152 | RWNIS | 0.28 ± 0.22
153 | RWNVHCYAMLFDVGLVDARL | inactive
154 | RWWVNSCMEIM | inactive
155 | RWYRLSGYKSHRNR | inactive
156 | RYDLIVKVVVSGESVSTWCC | inactive
157 | RYDWLLGSVWVFLLA | inactive
158 | RYIYPVDLYIWYNYGILLNR | 0.777 ± 0.23
159 | RYRLSCWWIRLGGNRLAWY | inactive
160 | RYRNIYC | inactive
